Assay results reported in US20230395193A1 (priority 2020, published 2023).

B1: M-Q9BYC5 (protein, UniProt Q9BYC5 1-575, looked up)
Alpha-(1,6)-fucosyltransferase: MRPWTGSWRWIMLILFAWGTLLFYIGGHLVRDNDHPDHSSRELSKILAKLERLKQQNEDLRRMAESLRIPEGPIDQGPAIGRVRVLEEQLVKAKEQIENYKKQTRNGLGKDHEILRRRIENGAKELWFFLQSELKKLKNLEGNELQRHADEFLLDLGHHERSIMTDLYYLSQTDGAGDWREKEAKDLTELVQRRITYLQNPKDCSKAKKLVCNINKGCGYGCQLHHVVYCFMIAYGTQRTLILESQNWRYATGGWETVFRPVSETCTDRSGISTGHWSGEVKDKNVQVVELPIVDSLHPRPPYLPLAVPEDLADRLVRVHGDPAVWWVSQFVKYLIRPQPWLEKEIEEATKKLGFKHPVIGVHVRRTDKVGTEAAFHPIEEYMVHVEEHFQLLARRMQVDKKRVYLATDDPSLLKEAKTKYPNYEFISDNSISWSAGLHNRYTENSLRGVILDIHFLSQADFLVCTFSSQVCRVAYEIMQTLHPDASANFHSLDDIYYFGGQNAHNQIAIYAHQPRTADEIPMEPGDIIGVAGNHWDGYSKGVNRKLGRTGLYPSYKVREKIETVKYPTYPEAEK
modifications: interaction partner of SARS-CoV-2 M
B2: M-Q9NQC3 (protein, UniProt Q9NQC3 1-1192, looked up)
Reticulon-4: MEDLDQSPLVSSSDSPPRPQPAFKYQFVREPEDEEEEEEEEEEDEDEDLEELEVLERKPAAGLSAAPVPTAPAAGAPLMDFGNDFVPPAPRGPLPAAPPVAPERQPSWDPSPVSSTVPAPSPLSAAAVSPSKLPEDDEPPARPPPPPPASVSPQAEPVWTPPAPAPAAPPSTPAAPKRRGSSGSVDETLFALPAASEPVIRSSAENMDLKEQPGNTISAGQEDFPSVLLETAASLPSLSPLSAASFKEHEYLGNLSTVLPTEGTLQENVSEASKEVSEKAKTLLIDRDLTEFSELEYSEMGSSFSVSPKAESAVIVANPREEIIVKNKDEEEKLVSNNILHNQQELPTALTKLVKEDEVVSSEKAKDSFNEKRVAVEAPMREEYADFKPFERVWEVKDSKEDSDMLAAGGKIESNLESKVDKKCFADSLEQTNHEKDSESSNDDTSFPSTPEGIKDRSGAYITCAPFNPAATESIATNIFPLLGDPTSENKTDEKKIEEKKAQIVTEKNTSTKTSNPFLVAAQDSETDYVTTDNLTKVTEEVVANMPEGLTPDLVQEACESELNEVTGTKIAYETKMDLVQTSEVMQESLYPAAQLCPSFEESEATPSPVLPDIVMEAPLNSAVPSAGASVIQPSSSPLEASSVNYESIKHEPENPPPYEEAMSVSLKKVSGIKEEIKEPENINAALQETEAPYISIACDLIKETKLSAEPAPDFSDYSEMAKVEQPVPDHSELVEDSSPDSEPVDLFSDDSIPDVPQKQDETVMLVKESLTETSFESMIEYENKEKLSALPPEGGKPYLESFKLSLDNTKDTLLPDEVSTLSKKEKIPLQMEELSTAVYSNDDLFISKEAQIRETETFSDSSPIEIIDEFPTLISSKTDSFSKLAREYTDLEVSHKSEIANAPDGAGSLPCTELPHDLSLKNIQPKVEEKISFSDDFSKNGSATSKVLLLPPDVSALATQAEIESIVKPKVLVKEAEKKLPSDTEKEDRSPSAIFSAELSKTSVVDLLYWRDIKKTGVVFGASLFLLLSLTVFSIVSVTAYIALALLSVTISFRIYKGVIQAIQKSDEGHPFRAYLESEVAISEELVQKYSNSALGHVNCTIKELRRLFLVDDLVDSLKFAVLMWVFTYVGALFNGLTLLILALISLFSVPVIYERHQAQIDHYLGLANKNVKDAMAKIQAKIPGLKRKAE
B3: M-Q9UBU6 (protein, UniProt Q9UBU6 1-413, looked up)
Protein FAM8A1: MAEGPEEARGHPPGQDDGGGDHEPVPSLRGPPTTAVPCPRDDPQAEPQAPGRPTAPGLAAAAAADKLEPPRELRKRGEAASGSGAELQEQAGCEAPEAAAPRERPARLSAREYSRQVHEWLWQSYCGYLTWHSGLAAFPAYCSPQPSPQSFPSGGAAVPQAAAPPPPQLGYYNPFYFLSPGAAGPDPRTAAGISTPAPVAGLGPRAPHVQASVRATPVTRVGSAAPSRSPSETGRQAGREYVIPSLAHRFMAEMVDFFILFFIKATIVLSIMHLSGIKDISKFAMHYIIEEIDEDTSMEDLQKMMVVALIYRLLVCFYEIICIWGAGGATPGKFLLGLRVVTCDTSVLIAPSRVLVIPSSNVSITTSTIRALIKNFSIASFFPAFITLLFFQHNRTAYDIVAGTIVVKRNGVR
modifications: interaction partner of viral M protein
B4: M-Q9BQ95 (protein, UniProt Q9BQ95 49-431, looked up)
Evolutionarily conserved …: SSEQSLVPSPPEPRQRPTKALVPFEDLFGQAPGGERDKASFLQTVQKFAEHSVRKRGHIDFIYLALRKMREYGVERDLAVYNQLLNIFPKEVFRPRNIIQRIFVHYPRQQECGIAVLEQMENHGVMPNKETEFLLIQIFGRKSYPMLKLVRLKLWFPRFMNVNPFPVPRDLPQDPVELAMFGLRHMEPDLSARVTIYQVPLPKDSTGAADPPQPHIVGIQSPDQQAALARHNPARPVFVEGPFSLWLRNKCVYYHILRADLLPPEEREVEETPEEWNLYYPMQLDLEYVRSGWDNYEFDINEVEEGPVFAMCMAGAHDQATMAKWIQGLQETNPTLAQIPVVFRLAGSTRELQTSSAGLEEPPLPEDHQEEDDNLQRQQQGQS
B5: M-Q9BV40 (protein, UniProt Q9BV40 1-100, looked up)
Vesicle-associated membrane …: MEEASEGGGNDRVRNLQSEVEGVKNIMTQNVERILARGENLEHLRNKTEDLEATSEHFKTTSQKVARKFWWKNVKMIVLICVIVFIIILFIVLFATGAFS
modifications: host interactor of M
B6: M-Q9BQT8 (protein, UniProt Q9BQT8 1-299, looked up)
Mitochondrial …: MSAKPEVSLVREASRQIVAGGSAGLVEICLMHPLDVVKTRFQIQRCATDPNSYKSLVDSFRMIFQMEGLFGFYKGILPPILAETPKRAVKFFTFEQYKKLLGYVSLSPALTFAIAGLGSGLTEAIVVNPFEVVKVGLQANRNTFAEQPSTVGYARQIIKKEGWGLQGLNKGLTATLGRHGVFNMVYFGFYYNVKNMIPVNKDPILEFWRKFGIGLLSGTIASVINIPFDVAKSRIQGPQPVPGEIKYRTCFKTMATVYQEEGILALYKGLLPKIMRLGPGGAVMLLVYEYTYSWLQENW
modifications: interaction partner of viral M protein
B7: M-Q9NVI1 (protein, UniProt Q9NVI1 1-1328, looked up)
Fanconi anemia group I protein: MDQKILSLAAEKTADKLQEFLQTLREGDLTNLLQNQAVKGKVAGALLRAIFKGSPCSEEAGTLRRRKIYTCCIQLVESGDLQKEIASEIIGLLMLEAHHFPGPLLVELANEFISAVREGSLVNGKSLELLPIILTALATKKENLAYGKGVLSGEECKKQLINTLCSGRWDQQYVIQLTSMFKDVPLTAEEVEFVVEKALSMFSKMNLQEIPPLVYQLLVLSSKGSRKSVLEGIIAFFSALDKQHNEEQSGDELLDVVTVPSGELRHVEGTIILHIVFAIKLDYELGRELVKHLKVGQQGDSNNNLSPFSIALLLSVTRIQRFQDQVLDLLKTSVVKSFKDLQLLQGSKFLQNLVPHRSYVSTMILEVVKNSVHSWDHVTQGLVELGFILMDSYGPKKVLDGKTIETSPSLSRMPNQHACKLGANILLETFKIHEMIRQEILEQVLNRVVTRASSPISHFLDLLSNIVMYAPLVLQSCSSKVTEAFDYLSFLPLQTVQRLLKAVQPLLKVSMSMRDCLILVLRKAMFANQLDARKSAVAGFLLLLKNFKVLGSLSSSQCSQSLSVSQVHVDVHSHYNSVANETFCLEIMDSLRRCLSQQADVRLMLYEGFYDVLRRNSQLANSVMQTLLSQLKQFYEPKPDLLPPLKLEACILTQGDKISLQEPLDYLLCCIQHCLAWYKNTVIPLQQGEEEEEEEEAFYEDLDDILESITNRMIKSELEDFELDKSADFSQSTSIGIKNNICAFLVMGVCEVLIEYNFSISSFSKNRFEDILSLFMCYKKLSDILNEKAGKAKTKMANKTSDSLLSMKFVSSLLTALFRDSIQSHQESLSVLRSSNEFMRYAVNVALQKVQQLKETGHVSGPDGQNPEKIFQNLCDITRVLLWRYTSIPTSVEESGKKEKGKSISLLCLEGLQKIFSAVQQFYQPKIQQFLRALDVTDKEGEEREDADVSVTQRTAFQIRQFQRSLLNLLSSQEEDFNSKEALLLVTVLTSLSKLLEPSSPQFVQMLSWTSKICKENSREDALFCKSLMNLLFSLHVSYKSPVILLRDLSQDIHGHLGDIDQDVEVEKTNHFAIVNLRTAAPTVCLLVLSQAEKVLEEVDWLITKLKGQVSQETLSEEASSQATLPNQPVEKAIIMQLGTLLTFFHELVQTALPSGSCVDTLLKDLCKMYTTLTALVRYYLQVCQSSGGIPKNMEKLVKLSGSHLTPLCYSFISYVQNKSKSLNYTGEKKEKPAAVATAMARVLRETKPIPNLIFAIEQYEKFLIHLSKKSKVNLMQHMKLSTSRDFKIKGNILDMVLREDGEDENEEGTASEHGGQNKEPAKKKRKK
modifications: interactor of viral M protein

Tested on: SARS-CoV-1, MERS-CoV and SARS-CoV-2 proteins in HEK293T cells
Parameters: species or system human

Molecule	MIST_MERS	MIST_SARS1	MIST_SARS2	Saint_MERS	Saint_SARS1	Saint_SARS2
B1	0.963	0	0	0.98	0	0
B2	0	0.4448	0.8738	0	1	1
B3	0	0.88	0.8045	0	0.63	0.97
B4	0	0.9893	0	0	0.97	0
B5	0.9874	0	0	1	0	0
B6	0.4327	0.6946	0.8808	0	0.65	0.65
B7	0.8133	0.7245	0.5573	1	1	1
